Reference: publication PMC3320765 (Biochemistry, 2012)

Target: HIRA(1–405), untagged (HIRA WD repeats) (human, UniProt P54198 1-405)
Test: AUC

Sequence of HIRA(1–405), untagged (HIRA WD repeats) (P54198 1-405): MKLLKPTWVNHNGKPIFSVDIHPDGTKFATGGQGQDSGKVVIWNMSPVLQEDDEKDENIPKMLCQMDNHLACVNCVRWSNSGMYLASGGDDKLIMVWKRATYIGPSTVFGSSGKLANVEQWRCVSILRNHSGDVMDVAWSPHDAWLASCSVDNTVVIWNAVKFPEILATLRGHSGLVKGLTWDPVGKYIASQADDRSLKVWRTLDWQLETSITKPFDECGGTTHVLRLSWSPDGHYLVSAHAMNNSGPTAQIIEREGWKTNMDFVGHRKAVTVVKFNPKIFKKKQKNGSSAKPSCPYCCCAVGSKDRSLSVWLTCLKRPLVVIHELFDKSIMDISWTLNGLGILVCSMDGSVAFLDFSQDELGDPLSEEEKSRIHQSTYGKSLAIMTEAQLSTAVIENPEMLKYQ

Binder	Kd [nM]
6His-UBN1(41–175) (domain or fragment, human, UniProt Q9NPG3 41-175, looked up) AAAAVRITLTLFEPDHKRCPEFFYPELVKNIRGKVKGLQPGDKKKDLSDPFNDEEKERHKVEALARKFEEKYGGKKRRKDRIQDLIDMGYGYDESDSFIDNSEAYDELVPASLTTKYGGFYINSGTLQFRQASES	13.3
6His-UBN1(41–119) (domain or fragment, human, UniProt Q9NPG3 41-119, looked up) AAAAVRITLTLFEPDHKRCPEFFYPELVKNIRGKVKGLQPGDKKKDLSDPFNDEEKERHKVEALARKFEEKYGGKKRRK	6.5
